Experiment: soluble on expression in E. coli; label from the status in PepcDB or PDB records

| Sequence | soluble on expression in E. coli |
| --- | --- |
| EIRDTKKDLKESEMRLSLALDASNMAAWHIDMDTRHIAYSDTLAVIFGYPKDTTLVWSDLVAQIYPEDMHLYQTARQQMETTGLYEYEIRIVWPDNSIKWIKTIGKMLLDSDGSQRRMIGITRDIT | not soluble |
| KQKKMQAMIVTSKPYCVIKRIHRDLHRGVTCINDAEGTYNHEKKAVLITILTREEFSDFKYLMLKADPKAFVSVAENVHIIGRFVDDD | not soluble |
| YTPPGRLGDESSGPRTDPRFSPAMVEALATFGLDAVAAAPPVSASDDLPTVLAAVGASHDGFQAVYDSIALDLPTDRDDVETSTETILGVDGNEITLHVFRPAGVEGVLPGLVYTHGGGMTILTTDNRVHRRWCTDLAAAGSVVVMVDFRNAWTAEGHHPFPSGVEDCLAAVLWVDEHRESLGLSGVVVQGESGGGNLAIATTLLAKRRGRLDAIDGVYASIPYISGGYAWDHERRLTELPSLVENDGYFIENGGMALLVRAYDPTGEHAEDPIAWPYFASEDELRGLPPFVVAVNELDPLRDEGIAFARRLARAGVDVAARVNIGLVHGADVIFRHWLPAALESTVRDVAGFAADRARLR | soluble |
| TLLHPLLMRNGDSRPLHKPTTPLPSLDLLTPPPSEVEPVDTFALEQMARLVEARLADFRIKADVVNYSPGPVITRFELNLAPGVKAARISNLSRDLARSLSTVAVRVVEVIPGKPYVGLELPNKKRQTVYLREVLDNAKFRDNPSPLTVVLGKDIAGEPVVADLAKMPHLLVAGTTGSGASVGVNAMILSMLYKAQPEDVRFIMIDPKMLELSVYEGIPHLLTEVVTDMKDAANALRWCVNEMERRYKLMSALGVRNLAGYNEKIAEADRMMRPIPDPYWKPGDSMDAQHPVLKKEPYIVVLVDEFADLMMTVGKKVEELIARLAQKARAAGIHLVLATQRPSVDVITGLIKANIPTRIAFTVSSKIDSRTILDQAGAESLLGMGDMLYSGPNSTLPVRVHGAFVRDQEVHAVVQDWKARGRPQYVDGITSDSESEGGAGGFDGAEELDPLFDQAVQFVTEKRKASISGVQRQFRIGYNRAARIIEQMEAQGIVSEQGHNGNREVLAPPPFD | soluble |
| MEDFWEDWDLAFEDVFPKSLKEALEGIKEIPTYGERGASRFMYNLLKLEKEKRKEIIEKVLEAVEVLRPCRECFLITDREVCPICSDEKRSKKFICVVEESQDAYAIEKLERYKGVYHVLQGHIAPLEGISAEDLTIDALMERIKKYQPKEVILATNPNVEGEATANYIAGLIRRKFPAVKITRTAYGFQFGSLIEFVDEYSLEKSMENRK | soluble |
| MAHHHHHHMTTAGQSDAFTRVSLHSVTALGKCPAPFSDPIAVKVVLEVFGCPPKHSIDVKFTWKPIWDFPVDQVLDEFEVGPLATVGKHELVLHSDPPDVAKIPDPTGPTALTIAFTYRGKQFLHIGYNAVVLCEGEMPDVFEDAAMLSRQLTQCFKKETTIAWDEDHEDVEEKTVINGKDNDISDVKEKDHNGHAAYDDEAKVPEGVSPTKKKARCEGSLSQ | soluble |
| MGSDKIHHHHHHMTFNVPDVKPLINDEFAGEAPKRALSYIANKRSAGMPVAGTYCGYAPMEVIRAVGAVPAVLCAFANKTIPAAEAVLPANLCPLIKSSYGFILTDTCPFFALSDAVVAETTCDGKKKMFELIFSHRPMFVMDLPQLPDEVEARANWATMISKLKGFLENTFGTFGTSEGIEAEIQATNIKNRLMRRVFGYAEKKPPLLSWSELYELCFLAQVATTEDLLPVFKEVFERLEEREAKGIYYGAPSSPRVLVTGCPVGGDSTKVFRIIEEAGGVVVAMDSCSGMKPFIADIEEKTGNPIDSVARHYLEIPCSCMTPNTRRLTELDKALAAFQPDAVVEVVLHACHSYNIEAIKIMNYLKEKHNLPYLKIVTDYSEGDVEQIRTRVEALLESI | not soluble |
| MAHHHHHHMCLSNLSYFFGAFEAVEPARSENDGGYASDWLSTLYSSLGLVLAHYLFEDNVEATVEATRILGNISYTNAGRDWMEANHCDEVTVLFLGHEDLRVVYNCCGVLLNLTAASPCRVVQDPELLQTMLSYTSRYTDQDRVEAVTALEEARLRQEQQELQQQRRGGDMKELVSEASSHVAQISDIVEKLLLNVHGVLHASAI | not soluble |
| MLGVLKKVFDPNKRQLARLEKIADQVDALGPEMARLSDEQLRQKTEEFKARYQQGESLDDLLVEAFAVVREGAKRVLGLYPYKVQIMGGVVLHEGDIAEMKTGEGKTLTATMPVYLNALTGRGVHVVTVNEYLATRDATEMGKLYEFLGMTVGLNLSGMSREEKQAAYNADITYGTNNEFGFDYLRDNMVLYKEHIVQRPLYYAIIDEVDSILIDEARTPLIISGTAQKSTKLYVQANAFVRTLRKDVDYTYDEKTKSVQLTEEGINKAERAFGIDNLFDLKHVTLNHHIQLALRAHVTMQRDVDYVVQDGKVIIVDPFTGRLMHGRRYSDGLHQAIEAKEGLEIQNESMTLATITFQNYFRMYEKLAGMTGTAKTEEEEFRNIYNMRVVVIPTNRPVIREDRPDLIYRTMEGKFRAVVEDIAARHAKGQPVLVGTVAIETSEMLSEMLKKRGIPHNVLNAKNHAKEAEIIAQAGQKGAVTIATNMAGRGTDIKLGEGVKELGGLAVIGTERHESRRIDNQLRGRSGRQGDPGVSQFYLSLEDELMRRFGSESLMAMMDRLGMDDSQPIQSKMVTKAVESAQKRVEGNNFDARKQLLQYDDVLREQREIIYRQRYEVLDSDNLRGIIEKMIQSVIERVVNAHTPKEEVPEEWNLKGLVEYLNAHLLPEGDVTEADLRGKEPEEMIELIWAKVKARYDEKEAQIPPEQMREFERVVVLRAVDMKWMNHIDAMEQLRQGIHLRAYGQVDPLREYQMEGYAMFEEMIAAIEEEVATYIMKAEIHHNLERQEVAKGEAVHPKEDGEEPKRKPVRKAVRVGRNDPCPCGSGKKYKHCCGRTV | not soluble |
| MDRPLLIFSGQSNRPLAQAIAEALGLPLGKSTTLRFANDNLFVRYEESLREGDVFIVQSFVPPVQDHLMELLMMVDAAKGASAARVTAVIPYFSYARSDKKDAPRISITARLIADLLQTAGADRVLTMTLHSPQVHGFFKIPVDHLSAEPVIANYFATRVDLENAVVVAPDAGDLKRASALARRLGLPLAFIDKERVSDTEVRVRMLVGEVEGKTALIVDDEISTAGSLVEAVEALMQAGAKEVYAAATHGVYVGPALDRIAKSPVKEVAATDTCPPKEGPKLRTLTVAPLFAEAIWRIHRGESVSSLFT | soluble |
| QSIEKLYAEFETEPIASASIAQVHKARLHSGEQVAVKVLRPNLLPVIEQDLSLMRFGAGWVERLFADGKRLKPREVVAEFDKYLHDELDLMREAANASQLGRNFQNSDMLIVPKVFYDYC | not soluble |
| MAEGEDVGWWRSWLQQSYQAVKEKSSEALEFMKRDLTEFTQVVQHDTACTIAATASVVKEKLATEGSSGATEKMKKGLSDFLGVISDTFAPSPDKTIDCDVITLMGTPSGTAEPYDGTKARLYSLQSDPATYCNEPDGPPELFDAWLSQFCLEEKKGGISELLVGSPSIRALYTKMVPAAVSHSEFWHRYFYKVHQLEQEQARRDALKQRAEQSISEEPGWEEEEEELMGISPISPKEAKVPVAKISTFPEGEPGPQSPCEENLVTSVEPPAEVTPSESSESISLVTQIANPATAPEARVLPKDLSQKLLEASLEEQGLAVDVGETGPSPPIHSKPLTPAGHTGGPEPRPPARVETLREEAPTDLRVFELNSDSGKSTPSNNGKKGSSTDISEDWEKDFDLDMTEEEVQMALSKVDASGELEDVEWEDWE | soluble |
| MEFTDIAMELSKKAWQASFHHPFILQLQEGNLEPAIFRYYLIQDAYYLKAFSEIYHLLADKTSNQEMKRLLKQNAQGLVEGELFIRQQFFKELEISDQEMEQHPIAPTCYHYISHIYRQFAEPNLAIAFASLLPCPWLYHDIGKSLNLKPSPNPLYQQWIETYITDELEQQIREEGALVNQLYRESDETDKQKMLDAFHISVHMEAKFWEMAYQHQTWKSDLQSLEKGEEMAGDPLEHHHHHH | soluble |
| MSEVIQDRRSAVDTARAGHMLERARWAAAAYGEYDAATVEGIVAAVAEAAHAHAERFAADAVAETGMGVVADKVRKNRACSRGIVEYYRGHDYISPRVDPDRKIVELPRPAGVVLALTPTTNPVATVYFKTILALMTRNAVVVAPHPRAARCSAEAARVLAEAAVAAGAPDGVVQVIDEPSIPLVQALMADERTDVIVATGGTAVVRAAYSSGNPALGVGPGNVPVLVDASADVAAAAQRIVDSKAFDNSVLCTNESVLIAEDAVADKLRAALTRAGAHILDEDGARRLRAYMFADGHLNTDVVGRDAAWIAGQAGLRVTPKTRVLIAPFDHVIAEEMLAHEKLSPVLGMTTVADAARGIRAARAVVRIGGAGHSAAIHSENPAVITDFAAQVPVLRVSVNVGNSTGSAGLDTNLAPSMTIGTGFVGRSSIGENLQPHNLVNWTRIAYNSDPGVVMGNFTGIDPWRAPAGPVPAYPRASNDRDGAVIQAAPQRSYQSPSRTTDVNLDALRAELRALVVEELAQLIKR | not soluble |
| MNGTKQQRRRGDTRQRIQDVALGLFAEQGYEKTSLREIAESLDVTKAALYYHFKTKEEILVSIFEDLSRPLEDLIEWGREQPHTLETKQEIIRRYSEALAGAAPLFRFMQENQATVRDLRIGELFKHRMFGLRDILMDPEADLVDQVRCISALFTLHAGMFVLRDLEGDPEEQRAAVLEVATDLITQAHRGAAGA | not soluble |
| MTSTTPLEPERWTPHATVATIVEKDGKFLLVEEKRLINSQGDFGIVYNQPAGHVDEGESIMAAAIRETLEETRWQVKLKHLVGIYIFTAPANNVTYHRYCFAAEATVHQAESQLDDGILDAKWLSWEEIQQLDNLRSPLVKRCIKDHIDGKHYPLDVIYEYADHEHTDDENKSQELEDRND | soluble |
| MKIIITGEPGVGKTTLVKKIVERLGKRAIGFWTEEVRDPETKKRTGFRIITTEGKKKIFSSKFFTSKKLVGSYGVNVQYFEELAIPILERAYREAKKDRRKVIIIDEIGKMELFSKKFRDLVRQIMHDPNVNVVATIPIRDVHPLVKEIRRLPGAVLIELTPENRDVILEDILSLLERLEHHHHHH | not soluble |
| IFNGRPAQKGTTPWIAMLSHLNGQPFCGGSLLGSSWIVTAAHCLHQSLDPKDPTLRDSDLLSPSDFKIILGKHWRLRSDENEQHLGVKHTTLHPQYDPNTFENDVALVELLESPVLNAFVMPICLPEGPQQEGAMVIVSGWGKQFLQRFPETLMEIEIPIVDHSTCQKAYAPLKKKVTRDMICAGEKEGGKDACAGDSGGPMVTLNRERGQWYLVGTVSWGDDCGKKDRYGVYSYIHHNKDWIQRVTGVRN | soluble |
| MFKVDRYFDLTAPIYPYMPVWPSNPPVELKPIVTVPKDGYLAEIIEASTHTGTHIDAPAHMIEGGTTVDDLDLASLIGTGYCLKVLPDGHTIRSTHLAEKWQGIYNNSILLIETGWYKKRGYTREFQYDFPGLSEDAADFLIQKHVKAVGIDTLGIEPYENTDFRVHKKLLRSGIPIIEDLYGLDSLEEGRPYLIIALPLRLKGTSGSMARVVAAETELEHHHHHH | not soluble |
| MAENDGETIVPDEQCNLTASTPMKSSGLEQVESPKERKTSMVECDDEGNPSSGTPDESPKQLTPHSIPPRRRRSPRRPEVSASRLPLKVLNQIFQYLPLKDLRSAMLTCHSWNNALSMEDSDIWQYLLGKKLPEAAVSDPFLLAELGSAKKKLRAWYFAWNTSDISRNNYIRTNGFTVHRQPVAQSTDGVRGKRGISKGVHAFDITWDGPLGTVAVVGIATKHAALHCVGYVALLGSDDQSWGWNLVDNVLMHNGAQLGVYPKMNNPPKYEVGDKIRLIIDCDTHVAYFERNSEFLGIAFNHIPPLRLYPAVCAVYGNTEVTMVYVGSPQMG | not soluble |
